Laboratory results reported in PMC6537586.

Conditions: ubiquitination at K571

Substance: ELL2: K571R
- degradation_or_half_life: no change, half-life less than 6 h
